Values of other authors as cited in article PMC3061256.

Biological target: HPr (Escherichia coli) (UniProt P0AA04)

In the case of “EIN (enzyme I N-terminal domain) N-terminal domain (from UniProt P08839)”, the Kd is given as 10 µM.
